Earlier results, collected in patent publication US20240247069A1, “FGFR3 BINDING MOLECULES AND METHODS OF USE THEREOF” (Regeneron Pharmaceuticals, Inc., priority 2023, published 2024).
Positions count from the first letter of the chain named.

B1: PRQ-026: anti-FGFR3 IIIc antibody of WO 2006/048877 A2; VH SEQ ID NO:36, VL SEQ ID NO:37 (antibody, V domains shown)
VH: QVQLVQSGAEVKKPGASVKVSCKASGYTFTSYYMHWVRQAPGQGLEWMGWINPNSGGTNYAQKFQGRVTMTRDTSISTAYMELSSLRSEDTAVYYCARGYWYAYFTYINYGYFDNWGQGTLVTVSS
VL: DIALTQPASVSGSPGQSITISCTGTSSDVGGYNYVSWYQQHPGKAPKLMIYDVSNRPSGVSNRFSGSKSGNTASLTISGLQAEDEADYYCQSYDNNSDWFGGGTKLTVLGQ
B2: 20B4: anti-FGFR3 domain 3 antibody of WO 2010/002862 A2; VH SEQ ID NO:57, VL SEQ ID NO:58 (antibody, V domains shown)
VH: EIQLQQSGPELVKPGASVKVSCKASGYSLTDYNMYWVKQSHGKSLEWIGYIDPYNGGTSYNQKFKGKATLTVDKSSSTAFMHLNSLTSEDSAVYYCARSLGPDFDYWGQGTTLTVSS
VL: QIVLTQSPAIMSASPGEKVTMTCSASSSVNYMHWYQQKSGTSPKRWIYDTSKLASGVPARFSGSGSGTSYSLTISSMEAEDTATYYCQQWNSNPLTFGAGTKLELK
B3: MS-Pro-55: anti-FGFR3 Ig-like domain 3 antibody of WO 2002/102972 A2; VH SEQ ID NO:44, VL SEQ ID NO:45 (antibody, V domains shown)
VH: QVQLVQSGAEVKKPGASVKVSCKASGYTFTSYYMHWVRQAPGQGLEWMGWINPNSGGTNYAQKFQGRVTMTRDTSISTAYMELSSLRSEDTAVYYCARSMNSTMYWYLRRVLFDHWGQGTLVTVSS
VL: DIALTQPASVSGSPGQSITISCTGTSSDVGGYNYVSWYQQHPGKAPKLMIYDVSNRPSGVSNRFSGSKSGNTASLTISGLQAEDEADYYCQSYDMYNYIVFGGGTKLTVLGQ
B4: PRQ-055: anti-FGFR3 IIIc antibody of WO 2006/048877 A2; VH SEQ ID NO:44, VL SEQ ID NO:45 (antibody, V domains shown)
VH: B3 VH
VL: B3 VL
B5: 15D8: anti-FGFR3 domain 3 antibody of WO 2010/002862 A2; VH SEQ ID NO:51, VL SEQ ID NO:52 (antibody, V domains shown)
VH: EIQLQQSGPELVKPGASVKVSCKASGYAFTSYNMYWVKQSHGKSLEWIGYIDPYNGGTSYNQKFKGKATLTVDKSSSTAYMHLNSLTSEDSAVYYCAREGGNYEAWFAYWGQGTLVTVSA
VL: QIVLTQSPALMSASPGEKVTMTCSASSSVSYMYWYQQKPRSSPKPWIYLTSYLASGVPARFSGSGSGTSYSLTISSMEAEDAATYYCQQWSSYPLTFGAGTKLELK
B6: 2G4: anti-FGFR3 domain 3 antibody of WO 2010/002862 A2; VH SEQ ID NO:55, VL SEQ ID NO:54 (antibody, V domains shown)
VH: B5 VH with S59R, Y60D
VL: B5 VL with Y52N, Y93N
B7: 27H2: anti-FGFR3 domain 3 antibody of WO 2010/002862 A2; VH SEQ ID NO:53, VL SEQ ID NO:54 (antibody, V domains shown)
VH: B5 VH with S59R, L70M
VL: B5 VL with Y52N, Y93N
B8: 4E7(7D12): anti-FGFR3 domain 3 antibody of WO 2010/002862 A2; VH SEQ ID NO:56, VL SEQ ID NO:54 (antibody, V domains shown)
VH: B5 VH with S59R
VL: B5 VL with Y52N, Y93N
B9: PRQ-029: anti-FGFR3 IIIc antibody of WO 2006/048877 A2; VH SEQ ID NO:40, VL SEQ ID NO:49 (antibody, V domains shown)
VH: QVQLVQSGAEVKKPGASVKVSCKASGYTFTSYYMHWVRQAPGQGLEWMGWINPNSGGTNYAQKFQGRVTMTRDTSISTAYMELSSLRSEDTAVYYCARTWQYSYFYYLDGGYYFDIWGQGTLVTVSS
VL: DIVLTQSPATLSLSPGERATLSCRASQSVSSSYLAWYQQKPGQAPRLLIYGASSRATGVPARFSGSGSGTDFTLTISSLEPEDFATYYCQQTNNAPVTFGQGTKVEIKRT
B10: MS-Pro-54: anti-FGFR3 Ig-like domain 3 antibody of WO 2002/102972 A2; VH SEQ ID NO:42, VL SEQ ID NO:43 (antibody, V domains shown)
VH: QVQLVQSGAEVKKPGASVKVSCKASGYTFTSYYMHWVRQAPGQGLEWMGWINPNSGGTNYAQKFQGRVTMTRDTSISTAYMELSSLRSEDTAVYYCARNMAYTNYQYVNMPHFDYWGQGTLVTVSS
VL: DIELTQPPSVSVAPGQTARISCSGDALGDKYASWYQQKPGQAPVLVIYDDSDRPSGIPERFSGSNSGNTATLTISGTQAEDEADYCQSYDYFKLVFGGGTKLTVLGQ
B11: PRQ-054: anti-FGFR3 IIIc antibody of WO 2006/048877 A2; VH SEQ ID NO:42, VL SEQ ID NO:50 (antibody, V domains shown)
VH: B10 VH
VL: DIELTQPPSVSVAPGQTARISCSGDALGDKYASWYQQKPGQAPVLVIYDDSDRPSGIPERFSGSNSGNTATLTISGTQAEDEADYYCQSYDYFKLVFGGGTKLTVLGQ
B12: Hu15D8: anti-FGFR3 domain 3 antibody of WO 2010/002862 A2; VH SEQ ID NO:59, VL SEQ ID NO:60 (antibody, V domains shown)
VH: EVQLVQSGAEVKKPGESLKISCKGSGYSFTSYNMYWVRQMPGKGLEWMGYIDPYNGGTSYNQKFKGKATLTVDKSISTAYLQWSSLKASDTAMYYCAREGGNYEAWFAYWGQGTLVTVSS
VL: DIQLTQSPSSLSASVGDRVTITCSASSSVSYMYWFQQKPGKAPKPLIYLTSYLASGVPSRFSGSGSGTDFTLTISSLQPEDFATYYCQQWSSYPLTFGGGTKVEIK
B13: PRQ-012: anti-FGFR3 domain 2 antibody of WO 2006/048877 A2; VH SEQ ID NO:47, VL SEQ ID NO:27 (antibody, V domains shown)
VH: QVQLKESGPALVKPTQTLTLTCTFSGFSLSTSGVGVGWIRQPPGKALEWLALIDWDDDKYYSTSLKTRLTISKDTSKNQVVLTMTNMDPVDTATYYCARYHSWYEMGYYGSTVGYMFDYWGQGTLVTVSS
VL: B11 VL with Y92F, F93D, K94F, L95A
B14: MS-PRQ-12: anti-FGFR3 Ig-like domain 2 antibody of WO 2002/102972 A2; VH SEQ ID NO:26, VL SEQ ID NO:27 (antibody, V domains shown)
VH: QVQLKESGPALVKPQTLTLTCTFSGFSLSTSGVGVGWIRQPPGKALEWLALIDWDDDKYYSTSLKTRLTISKDTSKNQVVLTMTNMDPVDTATYYCARYHSWYEMGYYGSTVGYMFDYWGQGTLVTVSS
VL: B11 VL with Y92F, F93D, K94F, L95A
B15: VH: SEQ ID NO: 7 of PCT Publication No: WO 2010/048026 A2: unnamed anti-FGFR3 Ig-like domain 2 antibody of WO 2010/048026 A2; VH SEQ ID NO:61, VL SEQ ID NO:62 (antibody, V domains shown)
VH: EVQLVQSGAEVKKPGASVKVSCKASGYMFTSYGISWVRQAPGQGLEWMGWVSTYNGDTNYAQKFQGRVTVTTDTSTSTAYMELRSLRSEDTAVYYCARVLGYYDSIDGYYYGMDVWGQGTTVTVSS
VL: QSVLTQPPSLSVAPGKTATFTCGGNNIGDKSVHWYRQKPGQAPVLVMYLDTERPSGIPERMSGSNFGNTATLTITRVEAEDEADYYCQVWDSGSDHVVFGGGTKLTVLG
B16: PRQ-001: anti-FGFR3 domain 2 antibody of WO 2006/048877 A2; VH SEQ ID NO:46, VL SEQ ID NO:29 (antibody, V domains shown)
VH: QVQLQQSGPGLVKPSQTLSLTCAISGDSVSSNSAAWNWIRQSPGRGLEWLGRTYYRSKWYNDYAVSVKSRITINPDTSKNQFSLQLNSVTPEDTAVYYCARSYYPDFDYWGQGTLVTVSS
VL: DIELTQPPSVSVAPGQTARISCSGDALGDKYASWYQQKPGQAPVLVIYDDSDRPSGIPERFSGSNSGNTATLTISGTQAEDEADYYCQSYDGPDLWVFGGGTKLTVLGQ
B17: PRQ-002: anti-FGFR3 domain 2 antibody of WO 2006/048877 A2; VH SEQ ID NO:24, VL SEQ ID NO:25 (antibody, V domains shown)
VH: QVQLVQSGAEVKKPGASVKVSCKASGYTFTSYYMHWVRQAPGQGLEWMGWINPNSGGTNYAQKFQGRVTMTRDTSISTAYMELSSLRSEDTAVYYCARDFLGYEFDYWGQGTLVTVSS
VL: B16 VL with G92Y, P93S, D94A, L95D, W96Y

Test system: FGFR3
Settings: Table T-3, exemplary FGFR3 D3 binding sequences from cited PCT publications

Molecule | Activity
B1 | Antagonistic
B2 | Antagonistic
B3 | Antagonistic
B4 | Antagonistic
B5 | Antagonistic
B6 | Antagonistic
B7 | Antagonistic
B8 | Antagonistic
B9 | Antagonistic
B10 | Antagonistic
B11 | Antagonistic
B12 | Antagonistic

Same assay, conditions: literature antibodies, sequences from cited PCT publications

Molecule | Activity
B13 | Antagonistic
B14 | Antagonistic
B1 | Antagonistic
B2 | Antagonistic
B3 | Antagonistic
B4 | Antagonistic
B15 | Antagonistic
B5 | Antagonistic
B6 | Antagonistic
B7 | Antagonistic
B8 | Antagonistic
B9 | Antagonistic
B16 | Antagonistic
B17 | Antagonistic
B10 | Antagonistic
B11 | Antagonistic
B12 | Antagonistic
